# Assay results: patent US20180104303A1 (UNIVERSITE DE LA ROCHELLE, published 2018)
# Target: T1, recombinant alpha-glucosidase from Saccharomyces cerevisiae, which is a maltase (Saccharomyces cerevisiae)
# Assay: cell-based or functional assay
row,Inhibitory activity on α-glucosidase (IC50) [mM],Binder
1,2.7,VY [VY peptide]
2,11,KY [KY peptide]
3,0.02,VAP [VAP peptide]
4,12.3,IY [IY peptide]
5,4.82,GPL [GPL peptide]
6,12.8,KW [KW peptide]
7,7.11,LKP [LKP peptide]
8,0.0136,AP [AP peptide]

# Target: T1, recombinant alpha-glucosidase from …
# Assay: cell-based or functional assay
# Remark: another data set of the same source
Binder,Inhibitory activity on α-glucosidase (IC50) in mg/ml [mg/mL],Inhibitory activity on α-glucosidase (IC50) in mmol/l [mmol/L]
AVPYQR [AVPYQR (SEQ ID NO: 5)],2.34,3.19
VY [VY peptide],0.756,2.7
KY [KY peptide],3.39,11
VAP [VAP peptide],0.0057,0.02
VAPG [VAPG (SEQ ID NO: 6)],1.39,4.05
IY [IY peptide],3.6,12.3
GPL [GPL peptide],1.37,4.82
KW [KW peptide],4.24,12.8
AP [AP peptide],0.0025,0.0136

# Now from value to binder:
Inhibitory activity on α-glucosidase (IC50) in mg/ml [mg/mL],Inhibitory activity on α-glucosidase (IC50) in mmol/l [mmol/L],Binder
2.03,2.68,VAPFPEV [VAPFPEV (SEQ ID NO: 4)]
1.42,1.76,SAPLRVY [SAPLRVY (SEQ ID NO: 3)]
2.29,4.59,VGVAPG [VGVAPG (SEQ ID NO: 7)]
2.53,7.11,LKP [LKP peptide]

# Target: T1, recombinant alpha-glucosidase from …
# Assay: cell-based or functional assay
# Remark: another data set of the same source
IC50 ratio against the AP and VAP peptides [fold],IC50 (inhibition of the activity of α-glucosidase in vitro) [mM],IC50 ratio against acarbose [fold],Binder
~135,,,VY [VY peptide]
,0.02,~595,VAP [VAP peptide]
~243,,,GPL [GPL peptide]
~355,,,LKP [LKP peptide]
,0.0136,~874,AP [AP peptide]

# Target: DPP-IV from pig kidney (pig, UniProt P22411 38-766, limits assumed)
# Sequence (P22411 38-766 limits assumed): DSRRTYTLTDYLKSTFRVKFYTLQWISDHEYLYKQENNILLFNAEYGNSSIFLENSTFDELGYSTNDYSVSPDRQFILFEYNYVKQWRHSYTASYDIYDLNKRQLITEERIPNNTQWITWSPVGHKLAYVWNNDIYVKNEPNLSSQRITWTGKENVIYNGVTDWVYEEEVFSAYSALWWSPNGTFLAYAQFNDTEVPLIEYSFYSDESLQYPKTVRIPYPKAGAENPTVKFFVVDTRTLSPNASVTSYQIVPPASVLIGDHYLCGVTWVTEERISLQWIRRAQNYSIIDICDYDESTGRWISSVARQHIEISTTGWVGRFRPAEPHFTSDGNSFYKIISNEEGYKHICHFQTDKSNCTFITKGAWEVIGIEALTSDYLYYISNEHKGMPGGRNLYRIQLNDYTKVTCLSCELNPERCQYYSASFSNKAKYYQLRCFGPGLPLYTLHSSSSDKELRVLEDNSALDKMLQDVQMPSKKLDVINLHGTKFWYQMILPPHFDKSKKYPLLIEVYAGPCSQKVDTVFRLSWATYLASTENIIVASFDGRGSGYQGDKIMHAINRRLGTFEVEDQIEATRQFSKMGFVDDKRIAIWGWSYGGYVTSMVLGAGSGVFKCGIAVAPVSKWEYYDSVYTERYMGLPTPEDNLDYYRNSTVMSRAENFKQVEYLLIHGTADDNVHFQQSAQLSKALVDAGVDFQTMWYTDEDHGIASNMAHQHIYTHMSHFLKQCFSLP
# Assay: cell-based or functional assay
row,Binder,"(IC50) in mmol/l, inhibition of DPP-IV [mmol/L]"
1,AVPYQR [AVPYQR (SEQ ID NO: 5)],5.7
2,VAP [VAP peptide],4.82
3,VAPG [VAPG (SEQ ID NO: 6)],2.27
4,GPL [GPL peptide],1.85
5,AP [AP peptide],4.78

# Other lines, results leading:
row,"(IC50) in mmol/l, inhibition of DPP-IV [mmol/L]",Binder
1,1.18,VAPFPEV [VAPFPEV (SEQ ID NO: 4)]
2,1.06,SAPLRVY [SAPLRVY (SEQ ID NO: 3)]
3,10.7,VGVAPG [VGVAPG (SEQ ID NO: 7)]
4,0.0121,IPI [Diprotin A (IPI)]
